Test [1] concerns the target Crotalus durissus terrificus (C.d.t.) venom. Kind of test: ELISA, venom-coated wells (5 µg/ml); dilution 1:25. (In general: ELISA stands for enzyme-linked immunosorbent assay.)
Test [2] shares this target. Put plainly: ELISA, venom-coated wells; dilution 1:125.
The target is the same in test [3]. Kind of test: ELISA, venom-coated wells (5 µg/ml); dilution 1:3125.
Test [4] has the same target. Kind of test: ELISA, venom-coated wells; dilution 1:25.
Test [5] has the same target. Put plainly: ELISA, venom-coated wells (5 µg/ml); dilution 1:625.
Test [6] shares this target. Kind of test: ELISA, venom-coated wells; dilution 1:625.
Test [7] has the same target. Kind of test: ELISA, venom-coated wells; dilution 1:312,500.
Test [8] has the same target. Put plainly: ELISA, venom-coated wells; dilution 1:3125.
For test [9] the target is unchanged. Kind of test: ELISA, venom-coated wells (5 µg/ml); undiluted.
For test [10] the target is unchanged. Put plainly: ELISA, venom-coated wells; dilution printed 1.5.
Test [11] shares this target. Put plainly: ELISA, venom-coated wells (5 µg/ml); dilution 1:5.
The target is the same in test [12]. Put plainly: ELISA, venom-coated wells; dilution 1:62,500.
Test [13] shares this target. Put plainly: ELISA, venom-coated wells (5 µg/ml); dilution 1:125.

Where only a bound is given, the exact number is not on record here.

As for preimmune IgY (antibody), the ELISA absorbance in [1] is 0 absorbance; in test [2], less than 0 absorbance; in test [3], 0.002 absorbance; in test [4], 0.016 absorbance; in test [5], 0 absorbance; in [6], less than 0 absorbance. Moreover, the ELISA absorbance in test [8] is less than 0 absorbance; in test [9], 0.003 absorbance; in test [10], less than 0 absorbance; in [11], less than 0 absorbance; in [13], 0.003 absorbance. For the same substance, the results for the ELISA absorbance (absorbance (412 nm filter)) in test [7] and in test [12] were 0.01 and 0.001, respectively.

The record behind these values is US20030054493A1.
